Results taken from the supplement of paper PMC10219994.
± gives the standard deviation of the averaged measurements.

B1: library; a variant is named by its letters at N, in order (parent)
chain: GAGACCGCAACTGAAAAGTTGTGGNNNNNATAGTGAGTCGCTGCCTGCAAAGACACAACT

Variants of: B1
Experiment: ligation selection enrichment (abundance after / before one-round selection) (fold); higher = more template-directed ligation activity
Conditions: with T7Psub CACGGAUGCUAAUACGACUCACUAUA; MgCl2 25 mM; 42 °C; 4 h; pH 8.5
Procedure: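 Lib-N5 ligase ribozyme library: five randomized core nucleotides (including the GGA motif of N8-1) within the fixed N8-1 ribozyme flanks, transcribed by T7 RNA polymerase with a 5'-triphosphate. The library (0.75 uM) was reacted with substrate T7Psub (6 uM) in 50 mM EPPS pH 8.5 with 25 mM MgCl2 at 42 C for 4 h. Ligated products were PAGE-purified, reverse transcribed and MiSeq sequenced; enrichment = abundance after selection / abundance before selection, with two independent replicates. The full transcript is built from the printed template flanks.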
GAGACCGCAACTGAAAAGTTGTGGTAAGTATAGTGAGTCGCTGCCTGCAAAGACACAACT [TAAGT] was tested, and the ligation selection enrichment was 0.0779 ± 0.028.
With GAGACCGCAACTGAAAAGTTGTGGCAAGTATAGTGAGTCGCTGCCTGCAAAGACACAACT [CAAGT] the ligation selection enrichment was 0.157 ± 0.079.
GAGACCGCAACTGAAAAGTTGTGGAAAGTATAGTGAGTCGCTGCCTGCAAAGACACAACT [AAAGT] showed a ligation selection enrichment of 0.147 ± 0.088.
GAGACCGCAACTGAAAAGTTGTGGGAAGTATAGTGAGTCGCTGCCTGCAAAGACACAACT [GAAGT] was tested, and the ligation selection enrichment was 0.121 ± 0.06.
Work on GAGACCGCAACTGAAAAGTTGTGGTAATAATAGTGAGTCGCTGCCTGCAAAGACACAACT [TAATA] yielded a ligation selection enrichment of 0.189 ± 0.0088.
For GAGACCGCAACTGAAAAGTTGTGGAAATAATAGTGAGTCGCTGCCTGCAAAGACACAACT [AAATA], the ligation selection enrichment was 0.18 ± 0.034.
In the case of GAGACCGCAACTGAAAAGTTGTGGGAATAATAGTGAGTCGCTGCCTGCAAAGACACAACT [GAATA], the ligation selection enrichment is reported as 0.175 ± 0.0089.
GAGACCGCAACTGAAAAGTTGTGGCAATAATAGTGAGTCGCTGCCTGCAAAGACACAACT [CAATA] gave a ligation selection enrichment of 0.143 ± 0.036.
For GAGACCGCAACTGAAAAGTTGTGGGAATCATAGTGAGTCGCTGCCTGCAAAGACACAACT [GAATC], the ligation selection enrichment was 0.205 ± 0.079.
GAGACCGCAACTGAAAAGTTGTGGAAATCATAGTGAGTCGCTGCCTGCAAAGACACAACT [AAATC] was tested, and the ligation selection enrichment was 0.171 ± 0.01.
GAGACCGCAACTGAAAAGTTGTGGCAATCATAGTGAGTCGCTGCCTGCAAAGACACAACT [CAATC] was tested, and the ligation selection enrichment was 0.136 ± 0.047.
GAGACCGCAACTGAAAAGTTGTGGTAATCATAGTGAGTCGCTGCCTGCAAAGACACAACT [TAATC] gave a ligation selection enrichment of 0.111 ± 0.048.
GAGACCGCAACTGAAAAGTTGTGGTAATGATAGTGAGTCGCTGCCTGCAAAGACACAACT [TAATG] showed a ligation selection enrichment of 1.16 ± 0.27.
Work on GAGACCGCAACTGAAAAGTTGTGGAAATGATAGTGAGTCGCTGCCTGCAAAGACACAACT [AAATG] yielded a ligation selection enrichment of 0.495 ± 0.067.
GAGACCGCAACTGAAAAGTTGTGGGAATGATAGTGAGTCGCTGCCTGCAAAGACACAACT [GAATG] gave a ligation selection enrichment of 0.478 ± 0.011.
GAGACCGCAACTGAAAAGTTGTGGCAATGATAGTGAGTCGCTGCCTGCAAAGACACAACT [CAATG] showed a ligation selection enrichment of 0.249 ± 0.03.
Work on GAGACCGCAACTGAAAAGTTGTGGAAATTATAGTGAGTCGCTGCCTGCAAAGACACAACT [AAATT] yielded a ligation selection enrichment of 0.446 ± 0.12.
GAGACCGCAACTGAAAAGTTGTGGCAATTATAGTGAGTCGCTGCCTGCAAAGACACAACT [CAATT] was tested, and the ligation selection enrichment was 0.343 ± 0.11.
GAGACCGCAACTGAAAAGTTGTGGGAATTATAGTGAGTCGCTGCCTGCAAAGACACAACT [GAATT] showed a ligation selection enrichment of 0.249 ± 0.099.
Variant GAGACCGCAACTGAAAAGTTGTGGTAATTATAGTGAGTCGCTGCCTGCAAAGACACAACT [TAATT] has a ligation selection enrichment of 0.211 ± 0.098.
With GAGACCGCAACTGAAAAGTTGTGGGACAAATAGTGAGTCGCTGCCTGCAAAGACACAACT [GACAA] the ligation selection enrichment was 0.256 ± 0.04.
Work on GAGACCGCAACTGAAAAGTTGTGGTACAAATAGTGAGTCGCTGCCTGCAAAGACACAACT [TACAA] yielded a ligation selection enrichment of 0.211 ± 0.08.
GAGACCGCAACTGAAAAGTTGTGGAACAAATAGTGAGTCGCTGCCTGCAAAGACACAACT [AACAA] showed a ligation selection enrichment of 0.209 ± 0.018.
GAGACCGCAACTGAAAAGTTGTGGCACAAATAGTGAGTCGCTGCCTGCAAAGACACAACT [CACAA] gave a ligation selection enrichment of 0.132 ± 0.055.
GAGACCGCAACTGAAAAGTTGTGGGACACATAGTGAGTCGCTGCCTGCAAAGACACAACT [GACAC] showed a ligation selection enrichment of 0.176 ± 0.0093.
Work on GAGACCGCAACTGAAAAGTTGTGGCACACATAGTGAGTCGCTGCCTGCAAAGACACAACT [CACAC] yielded a ligation selection enrichment of 0.168 ± 0.031.
Variant GAGACCGCAACTGAAAAGTTGTGGAACACATAGTGAGTCGCTGCCTGCAAAGACACAACT [AACAC] has a ligation selection enrichment of 0.159 ± 0.016.
Variant GAGACCGCAACTGAAAAGTTGTGGTACACATAGTGAGTCGCTGCCTGCAAAGACACAACT [TACAC] has a ligation selection enrichment of 0.139 ± 0.042.
GAGACCGCAACTGAAAAGTTGTGGGACAGATAGTGAGTCGCTGCCTGCAAAGACACAACT [GACAG] showed a ligation selection enrichment of 0.419 ± 0.07.
Work on GAGACCGCAACTGAAAAGTTGTGGTACAGATAGTGAGTCGCTGCCTGCAAAGACACAACT [TACAG] yielded a ligation selection enrichment of 0.393 ± 0.092.
GAGACCGCAACTGAAAAGTTGTGGAACAGATAGTGAGTCGCTGCCTGCAAAGACACAACT [AACAG] showed a ligation selection enrichment of 0.2191 ± 0.00078.
Variant GAGACCGCAACTGAAAAGTTGTGGCACAGATAGTGAGTCGCTGCCTGCAAAGACACAACT [CACAG] has a ligation selection enrichment of 0.134 ± 0.035.
Variant GAGACCGCAACTGAAAAGTTGTGGCACATATAGTGAGTCGCTGCCTGCAAAGACACAACT [CACAT] has a ligation selection enrichment of 1.16 ± 0.21.
GAGACCGCAACTGAAAAGTTGTGGAACATATAGTGAGTCGCTGCCTGCAAAGACACAACT [AACAT] showed a ligation selection enrichment of 0.729 ± 0.14.
Variant GAGACCGCAACTGAAAAGTTGTGGTACATATAGTGAGTCGCTGCCTGCAAAGACACAACT [TACAT] has a ligation selection enrichment of 0.578 ± 0.12.
GAGACCGCAACTGAAAAGTTGTGGGACATATAGTGAGTCGCTGCCTGCAAAGACACAACT [GACAT] was tested, and the ligation selection enrichment was 0.499 ± 0.025.
GAGACCGCAACTGAAAAGTTGTGGGACCAATAGTGAGTCGCTGCCTGCAAAGACACAACT [GACCA] showed a ligation selection enrichment of 0.239 ± 0.067.
With GAGACCGCAACTGAAAAGTTGTGGAACCAATAGTGAGTCGCTGCCTGCAAAGACACAACT [AACCA] the ligation selection enrichment was 0.1955 ± 0.00066.
Variant GAGACCGCAACTGAAAAGTTGTGGTACCAATAGTGAGTCGCTGCCTGCAAAGACACAACT [TACCA] has a ligation selection enrichment of 0.184 ± 0.011.
In the case of GAGACCGCAACTGAAAAGTTGTGGCACCAATAGTGAGTCGCTGCCTGCAAAGACACAACT [CACCA], the ligation selection enrichment is reported as 0.112 ± 0.018.
In the case of GAGACCGCAACTGAAAAGTTGTGGGACCCATAGTGAGTCGCTGCCTGCAAAGACACAACT [GACCC], the ligation selection enrichment is reported as 0.238 ± 0.057.
For GAGACCGCAACTGAAAAGTTGTGGAACCCATAGTGAGTCGCTGCCTGCAAAGACACAACT [AACCC], the ligation selection enrichment was 0.21 ± 0.032.
GAGACCGCAACTGAAAAGTTGTGGTACCCATAGTGAGTCGCTGCCTGCAAAGACACAACT [TACCC] was tested, and the ligation selection enrichment was 0.202 ± 0.003.
GAGACCGCAACTGAAAAGTTGTGGCACCCATAGTGAGTCGCTGCCTGCAAAGACACAACT [CACCC] gave a ligation selection enrichment of 0.15 ± 0.0098.
In the case of GAGACCGCAACTGAAAAGTTGTGGGACCGATAGTGAGTCGCTGCCTGCAAAGACACAACT [GACCG], the ligation selection enrichment is reported as 0.8601 ± 0.0032.
